Results as given in the supplement of paper PMC12764529.
± gives the half width of the 95% confidence interval.

Experiments:
[1] = folding stability dG unfold from trypsin proteolysis; higher = more stable
Procedure, shortened: (§1)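 Sequencing followed digestion of designed mini-proteins with trypsin and chymotrypsin, each at 11 concentrations in threefold dilutions together with a no-protease condition. The mini-proteins were under 80 residues, had no cysteine, sat in a PA-tagged cDNA display construct, and were kept only if AlphaFold2 dimer inter-PAE was above 15. From the counts, Bayesian fitting gave K50, and unfolding free energy was derived against a sequence-predicted unfolded-state K50 and a shared folded-state K50, per protease or combined.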

[2] = folding stability dG unfold from chymotrypsin proteolysis; higher = more stable
Procedure, shortened: as §1

[3] = folding stability dG unfold (combined trypsin and chymotrypsin); higher = more stable
Procedure, shortened: as §1

Sequence	folding stability dG unfold [1]	folding stability dG unfold [2]	folding stability dG unfold [3]
SAGGSAGGSAGSMSTPRSSEKMEKDGGGETLVRTLTYPEPSLTRTVRTPPDGSSSSSTSAPSAGGSAGGSAG [r3_28_JUSTAS]	-0.452 ± 0.37 kcal/mol	0.54 ± 0.11 kcal/mol	0.235 ± 0.2 kcal/mol
SASTSSISTETESRKISSFTVGDKEYEIYENTTTTTLPDGSVVTTTTLSVKDPSSNVTKTLSSTTTFTPSAG [r14_195_JUSTAS]	2.09 ± 0.044 kcal/mol	2.49 ± 0.03 kcal/mol	2.32 ± 0.12 kcal/mol
SAGGGMVVYVTVPPDDPRVEELKERLAADPRVSDVTVEKVEEYPDTVRLRFTFPGDPAVVAAARALLSAGGS [r16_394_JUSTAS]	0.995 ± 0.059 kcal/mol	1.51 ± 0.096 kcal/mol	1.32 ± 0.053 kcal/mol
SAGGSAGGSKVDIVKVEVYEVESPLGGRYYLVKVYRKDGRPILVLASPSTTPEEVLKKAEEAESAGGSAGGS [r12_1047_TrMRF]	1.96 ± 0.049 kcal/mol	2.78 ± 0.053 kcal/mol	2.48 ± 0.12 kcal/mol
SAGPVLLELESPSGGRYRIALPPNVTEIRRVGDRFIIRLPDGFSLVIEVDEDEPPSTLNDIKILAVIPSAGG [r19_274_TrMRF]	2.19 ± 0.03 kcal/mol	2.41 ± 0.045 kcal/mol	2.38 ± 0.043 kcal/mol
SAGGSMTLRLPVPEDVEVVEVTAEVPDPETGKVYVFRSRARVVPYKDGVYLTVDLDPDGRSYGFDPSAGGSA [r2_123_TrMRF]	1.07 ± 0.096 kcal/mol	0.56 ± 0.12 kcal/mol	0.835 ± 0.059 kcal/mol
SAGGSAMKVIVTVKILDKGEVKTLTEEEAKKYLEEHPEEVKEVEVETTVESDATESFTDIDLNGLKSAGGSA [r15_99_JUSTAS]	-0.185 ± 0.21 kcal/mol	0.462 ± 0.047 kcal/mol	0.416 ± 0.23 kcal/mol
SAGGSAWPAKEIAKELNPGFPVDVEPEPVPNKDGKDMVTIEARFPNGWKIQIVFRNGKPEAIQWQKSAGGSA [r15_417_TrROS]	1.47 ± 0.032 kcal/mol	2.28 ± 0.11 kcal/mol	1.97 ± 0.095 kcal/mol
SAGGSAGGSAMKTITLKDEKGNPLTAEVEKLPNGTIKITITKPGGEKTTYTIPPGEKITLPVSAGGSAGGSA [r18_115_JUSTAS]	2.34 ± 0.16 kcal/mol	2.98 ± 0.05 kcal/mol	2.77 ± 0.14 kcal/mol
SAGGSAGGSMALPPDLEVRITERTVSPDGSTTTYTVERPDGTTVTLTSEAELAALRESGVVLESAGGSAGGS [r12_455_JUSTAS]	0.227 ± 0.086 kcal/mol	-0.137 ± 0.15 kcal/mol	0.145 ± 0.089 kcal/mol
KKITIIIPSPDGYWVVIKIEWPNGRPINVFFRSPEELLNEIQRQLGMYPENFEITDIEVMPPDDLKEAMDNS [r1_119_TrROS]	2.77 ± 0.1 kcal/mol	3.39 ± 0.12 kcal/mol	3.22 ± 0.11 kcal/mol
SAGSNTIWYPFPLKEIKEAISSGQSMEEIADELSERHGEEVPIEYPNMKIRIYVPEPGPLYVRIEMTPDSAG [r5_343_TrROS]	0.519 ± 0.2 kcal/mol	0.907 ± 0.098 kcal/mol	0.734 ± 0.14 kcal/mol
SAGGMTLVIKVTNKDGSTLTITFDAETNTITITFPDGTTRTITVPADTTIEELIAALPPDAKVEILPASAGG [r13_696_TrROS_Hall]	3.42 ± 0.073 kcal/mol	4.75 ± 0.11 kcal/mol	4.55 ± 0.1 kcal/mol
SAGGSLKIRTVLRLPSPDGTPYLVFSKEAVIHPVPNIVHINLLVPDKEITLTVPLNEVELLGSPEEVLSSAG [r5_15_TrMRF]	2.13 ± 0.048 kcal/mol	2.81 ± 0.029 kcal/mol	2.65 ± 0.097 kcal/mol
SAGGSANDKDGQKKKQIKPIKIELPIPPGMEIEEINPGNGMIMIRWPENGWTWMFSLDDGKIFVMDSAGGSA [r15_452_TrROS]	1.54 ± 0.058 kcal/mol	2.13 ± 0.19 kcal/mol	1.86 ± 0.22 kcal/mol
SAGGSRVEVEVEVEGDTLRVRLRVYSEGGPPLLEAEAELPLGPVPPLPPVEVRVDPLEEEYPAKYFSAGGSA [r2_332_TrMRF]	2.82 ± 0.14 kcal/mol	2.28 ± 0.17 kcal/mol	2.5 ± 0.31 kcal/mol
SPEKEIKVKYELPEPGSGPVKVEATFTINPKTGEVKMPVTLTRPGSSSQVNLPEELLKELKNKVLEELGKSA [r9_1136_JUSTAS]	-0.621 ± 0.29 kcal/mol	0.795 ± 0.089 kcal/mol	0.442 ± 0.083 kcal/mol
SAGGSAGGSMKTIELPNGMKITVEKDEETGVYTITITFPDGSKKTITVPKGTSLEDLVIEIKPSAGGSAGGS [r12_261_TrROS_Hall]	2.54 ± 0.095 kcal/mol	4.38 ± 0.21 kcal/mol	4.04 ± 0.13 kcal/mol
SSIIIPGLPAEQARQLAKEFAEHYPNYDVKVEYHPDNGMITVDIEMPHKDPDGKPKGWRKMNINIHIWDPSA [r9_378_TrROS]	0.868 ± 0.12 kcal/mol	1.53 ± 0.17 kcal/mol	1.23 ± 0.2 kcal/mol
SAPVRGPDGSVFEVDDITFDPDTRTVTVTTPEGTYTFPVPPGWVVEFDPVTKEITVRPLPDLSPENNPFPSA [r9_551_TrMRF]	2.54 ± 0.15 kcal/mol	2.84 ± 0.06 kcal/mol	2.79 ± 0.097 kcal/mol
SAGMKIENAEITEIKVTVNEDGTVTVEMTVRLKNGYVVKVTMTFKNGKLEIKPEKVEVYKVKLPEEELSAGG [r19_84_TrROS_Hall]	1.68 ± 0.098 kcal/mol	2.28 ± 0.22 kcal/mol	2.09 ± 0.41 kcal/mol
